# In patent US20130011380A1:
# Experiments:
# Assay in all cases: anti-Flag IP-MS, mES nuclear extract
# Akr1b3 (mouse) = Akr1b3 (mouse) (UniProt P45376)
# Cbx1 (mouse) = Cbx1 (mouse) (UniProt P83917)
# Cpsf1 (mouse) = Cpsf1 (mouse) (UniProt Q9EPU4)
# Cse1l (mouse) = Cse1l (mouse) (UniProt Q9ERK4)
# Ctbp2 (mouse) = Ctbp2 (mouse) (UniProt P56546)
# Cttn (mouse) = Cttn (mouse) (UniProt Q60598)
# Cul4b (mouse) = Cul4b (mouse) (UniProt A2A432)
# Ddb1 (mouse) = Ddb1 (mouse) (UniProt Q3U1J4)
# Dnaja1 (mouse) = Dnaja1 (mouse) (UniProt P63037)
# Dnaja3 (mouse) = Dnaja3 (mouse) (UniProt Q99M87)
# Dnajb6 (mouse) = Dnajb6 (mouse) (UniProt O54946)
# Dnmt3b (mouse) = Dnmt3b (mouse) (UniProt O88509)
# Dync1h1 (mouse) = Dync1h1 (mouse) (UniProt Q9JHU4)
# Emd (mouse) = Emd (mouse) (UniProt O08579)
# Gart (mouse) = Gart (mouse) (UniProt Q64737)
# Ints3 (mouse) = Ints3 (mouse) (UniProt Q7TPD0)
# Kif11 (mouse) = Kif11 (mouse) (UniProt Q6P9P6)
# Krt18 (mouse) = Krt18 (mouse) (UniProt P05784)
# Mllt4 (mouse) = Mllt4 (mouse) (UniProt Q9QZQ1)
# Nars (mouse) = Nars (mouse) (UniProt Q8BP47)
# Nars (mouse), sequence (Q8BP47 whole entry): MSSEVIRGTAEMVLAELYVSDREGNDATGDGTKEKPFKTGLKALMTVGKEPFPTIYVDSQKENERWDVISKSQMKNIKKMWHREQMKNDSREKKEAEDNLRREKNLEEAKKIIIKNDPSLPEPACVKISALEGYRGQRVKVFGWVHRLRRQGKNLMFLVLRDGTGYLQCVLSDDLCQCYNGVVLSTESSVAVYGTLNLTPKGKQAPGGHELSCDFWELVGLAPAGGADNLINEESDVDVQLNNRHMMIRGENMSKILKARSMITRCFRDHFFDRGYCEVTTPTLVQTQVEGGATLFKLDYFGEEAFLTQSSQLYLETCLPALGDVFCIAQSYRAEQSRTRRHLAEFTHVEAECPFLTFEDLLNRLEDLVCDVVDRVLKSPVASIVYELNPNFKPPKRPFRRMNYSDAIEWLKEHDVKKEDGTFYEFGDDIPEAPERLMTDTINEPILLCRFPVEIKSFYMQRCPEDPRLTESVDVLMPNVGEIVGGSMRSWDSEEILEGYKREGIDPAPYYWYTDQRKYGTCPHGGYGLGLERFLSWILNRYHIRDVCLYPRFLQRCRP
# Pcnt (mouse) = Pcnt (mouse) (UniProt P48725)
# Pfn1 (mouse) = Pfn1 (mouse) (UniProt P62962)
# Pfn1 (mouse), sequence (P62962 2-140 limits assumed): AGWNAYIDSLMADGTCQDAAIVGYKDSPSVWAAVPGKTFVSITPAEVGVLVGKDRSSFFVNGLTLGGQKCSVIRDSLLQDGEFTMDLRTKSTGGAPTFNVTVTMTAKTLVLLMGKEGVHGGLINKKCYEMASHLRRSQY
# Pkm2 (mouse) = Pkm2 (mouse) (UniProt P52480)
# Plec1 (mouse) = Plec1 (mouse) (UniProt Q9QXS1)
# Prpf4 (mouse) = Prpf4 (mouse) (UniProt Q9DAW6)
# Psmc5 (mouse) = Psmc5 (mouse) (UniProt P62196)
# Psmc5 (mouse), sequence (P62196 2-406 limits assumed): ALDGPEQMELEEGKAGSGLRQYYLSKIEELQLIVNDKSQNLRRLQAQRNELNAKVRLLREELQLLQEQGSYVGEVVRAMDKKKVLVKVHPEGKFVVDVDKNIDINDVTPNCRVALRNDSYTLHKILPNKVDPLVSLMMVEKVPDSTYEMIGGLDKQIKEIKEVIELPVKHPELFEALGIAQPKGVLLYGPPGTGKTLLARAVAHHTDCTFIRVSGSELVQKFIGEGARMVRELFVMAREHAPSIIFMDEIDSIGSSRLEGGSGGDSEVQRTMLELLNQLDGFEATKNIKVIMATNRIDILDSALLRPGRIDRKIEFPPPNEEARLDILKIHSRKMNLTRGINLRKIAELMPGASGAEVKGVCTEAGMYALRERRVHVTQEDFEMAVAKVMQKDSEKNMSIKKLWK
# Racgap1 (mouse) = Racgap1 (mouse) (UniProt Q9WVM1)
# Rcc1 (mouse) = Rcc1 (mouse) (UniProt Q8VE37)
# Rpn1 (mouse) = Rpn1 (mouse) (UniProt Q91YQ5)
# Seh1l (mouse) = Seh1l (mouse) (UniProt Q8R2U0)
# Sfrs17b (mouse) = Sfrs17b (mouse) (UniProt A2A3V1)
# Smc4 (mouse) = Smc4 (mouse) (UniProt Q8CG47)
# Smc4 (mouse), sequence (Q8CG47 whole entry): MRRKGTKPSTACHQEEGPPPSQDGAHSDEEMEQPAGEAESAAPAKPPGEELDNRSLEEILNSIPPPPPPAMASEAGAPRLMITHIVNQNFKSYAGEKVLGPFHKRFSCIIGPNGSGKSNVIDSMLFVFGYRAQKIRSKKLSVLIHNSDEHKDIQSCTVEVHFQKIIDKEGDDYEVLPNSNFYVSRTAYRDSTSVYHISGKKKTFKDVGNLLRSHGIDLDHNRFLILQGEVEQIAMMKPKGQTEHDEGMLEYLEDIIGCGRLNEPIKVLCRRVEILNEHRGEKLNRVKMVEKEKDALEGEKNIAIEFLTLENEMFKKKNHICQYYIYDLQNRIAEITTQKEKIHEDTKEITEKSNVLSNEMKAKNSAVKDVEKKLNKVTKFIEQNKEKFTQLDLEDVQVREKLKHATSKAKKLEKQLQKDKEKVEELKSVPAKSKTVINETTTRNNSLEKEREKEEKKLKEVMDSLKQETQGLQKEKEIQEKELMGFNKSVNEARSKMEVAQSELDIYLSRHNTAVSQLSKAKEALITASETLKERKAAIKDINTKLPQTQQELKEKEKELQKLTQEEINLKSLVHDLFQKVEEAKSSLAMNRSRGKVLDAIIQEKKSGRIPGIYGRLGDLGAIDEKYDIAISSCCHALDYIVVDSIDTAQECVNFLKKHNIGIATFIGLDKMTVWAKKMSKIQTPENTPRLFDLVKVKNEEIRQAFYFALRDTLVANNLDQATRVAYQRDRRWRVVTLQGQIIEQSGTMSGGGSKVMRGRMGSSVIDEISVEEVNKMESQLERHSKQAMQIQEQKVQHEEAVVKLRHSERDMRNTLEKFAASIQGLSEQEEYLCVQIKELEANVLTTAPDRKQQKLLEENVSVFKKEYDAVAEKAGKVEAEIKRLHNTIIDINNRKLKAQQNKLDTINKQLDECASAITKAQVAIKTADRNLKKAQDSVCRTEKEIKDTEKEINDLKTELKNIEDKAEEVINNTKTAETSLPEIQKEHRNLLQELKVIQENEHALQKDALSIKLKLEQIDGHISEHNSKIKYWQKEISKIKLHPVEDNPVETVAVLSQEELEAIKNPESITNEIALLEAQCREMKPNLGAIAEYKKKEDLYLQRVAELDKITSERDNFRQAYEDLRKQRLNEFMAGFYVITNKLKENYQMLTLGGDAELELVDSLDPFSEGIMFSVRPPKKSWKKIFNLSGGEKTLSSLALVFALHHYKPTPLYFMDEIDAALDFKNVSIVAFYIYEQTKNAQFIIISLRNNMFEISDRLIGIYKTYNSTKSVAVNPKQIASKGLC
# Ssrp1 (mouse) = Ssrp1 (mouse) (UniProt Q08943)
# Tcp1 (mouse) = Tcp1 (mouse) (UniProt P11983)
# Tmem48 (mouse) = Tmem48 (mouse) (UniProt Q8VCB1)
# Uba2 (mouse) = Uba2 (mouse) (UniProt Q9Z1F9)
# Wapal (mouse) = Wapal (mouse) (UniProt Q65Z40)
# Xpo1 (mouse) = Xpo1 (mouse) (UniProt Q6P5F9)
# Ywhaz (mouse) = Ywhaz (mouse) (UniProt P63101)
# Zfp281 (mouse) = Zfp281 (mouse) (UniProt Q99LI5)
# Cul4b (mouse), sequence (A2A432 whole entry): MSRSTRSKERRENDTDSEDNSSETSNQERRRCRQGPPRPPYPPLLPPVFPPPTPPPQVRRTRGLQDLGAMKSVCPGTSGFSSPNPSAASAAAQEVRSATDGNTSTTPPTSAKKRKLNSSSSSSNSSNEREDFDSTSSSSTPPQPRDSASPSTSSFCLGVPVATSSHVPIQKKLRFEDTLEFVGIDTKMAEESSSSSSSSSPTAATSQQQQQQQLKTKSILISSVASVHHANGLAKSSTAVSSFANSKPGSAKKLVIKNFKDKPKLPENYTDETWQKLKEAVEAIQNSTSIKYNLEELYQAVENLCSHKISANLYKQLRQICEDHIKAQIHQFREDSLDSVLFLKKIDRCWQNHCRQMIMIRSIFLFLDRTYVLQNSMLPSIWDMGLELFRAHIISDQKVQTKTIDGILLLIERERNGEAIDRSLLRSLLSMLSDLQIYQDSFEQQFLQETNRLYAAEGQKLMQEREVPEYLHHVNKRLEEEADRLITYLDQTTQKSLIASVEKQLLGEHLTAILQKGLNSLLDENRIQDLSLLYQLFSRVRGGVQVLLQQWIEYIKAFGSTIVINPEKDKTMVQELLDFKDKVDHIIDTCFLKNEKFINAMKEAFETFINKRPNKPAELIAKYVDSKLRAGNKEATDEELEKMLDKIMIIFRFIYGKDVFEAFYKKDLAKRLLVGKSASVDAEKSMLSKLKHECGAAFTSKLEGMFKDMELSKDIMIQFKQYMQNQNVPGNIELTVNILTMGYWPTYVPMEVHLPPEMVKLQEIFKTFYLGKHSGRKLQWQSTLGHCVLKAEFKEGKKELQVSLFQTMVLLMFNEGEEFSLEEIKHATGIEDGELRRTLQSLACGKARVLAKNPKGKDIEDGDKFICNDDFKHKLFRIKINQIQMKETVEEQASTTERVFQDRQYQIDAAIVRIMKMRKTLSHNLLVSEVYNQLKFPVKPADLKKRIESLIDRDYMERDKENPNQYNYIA
# Cpsf1 (mouse), sequence (Q9EPU4 whole entry): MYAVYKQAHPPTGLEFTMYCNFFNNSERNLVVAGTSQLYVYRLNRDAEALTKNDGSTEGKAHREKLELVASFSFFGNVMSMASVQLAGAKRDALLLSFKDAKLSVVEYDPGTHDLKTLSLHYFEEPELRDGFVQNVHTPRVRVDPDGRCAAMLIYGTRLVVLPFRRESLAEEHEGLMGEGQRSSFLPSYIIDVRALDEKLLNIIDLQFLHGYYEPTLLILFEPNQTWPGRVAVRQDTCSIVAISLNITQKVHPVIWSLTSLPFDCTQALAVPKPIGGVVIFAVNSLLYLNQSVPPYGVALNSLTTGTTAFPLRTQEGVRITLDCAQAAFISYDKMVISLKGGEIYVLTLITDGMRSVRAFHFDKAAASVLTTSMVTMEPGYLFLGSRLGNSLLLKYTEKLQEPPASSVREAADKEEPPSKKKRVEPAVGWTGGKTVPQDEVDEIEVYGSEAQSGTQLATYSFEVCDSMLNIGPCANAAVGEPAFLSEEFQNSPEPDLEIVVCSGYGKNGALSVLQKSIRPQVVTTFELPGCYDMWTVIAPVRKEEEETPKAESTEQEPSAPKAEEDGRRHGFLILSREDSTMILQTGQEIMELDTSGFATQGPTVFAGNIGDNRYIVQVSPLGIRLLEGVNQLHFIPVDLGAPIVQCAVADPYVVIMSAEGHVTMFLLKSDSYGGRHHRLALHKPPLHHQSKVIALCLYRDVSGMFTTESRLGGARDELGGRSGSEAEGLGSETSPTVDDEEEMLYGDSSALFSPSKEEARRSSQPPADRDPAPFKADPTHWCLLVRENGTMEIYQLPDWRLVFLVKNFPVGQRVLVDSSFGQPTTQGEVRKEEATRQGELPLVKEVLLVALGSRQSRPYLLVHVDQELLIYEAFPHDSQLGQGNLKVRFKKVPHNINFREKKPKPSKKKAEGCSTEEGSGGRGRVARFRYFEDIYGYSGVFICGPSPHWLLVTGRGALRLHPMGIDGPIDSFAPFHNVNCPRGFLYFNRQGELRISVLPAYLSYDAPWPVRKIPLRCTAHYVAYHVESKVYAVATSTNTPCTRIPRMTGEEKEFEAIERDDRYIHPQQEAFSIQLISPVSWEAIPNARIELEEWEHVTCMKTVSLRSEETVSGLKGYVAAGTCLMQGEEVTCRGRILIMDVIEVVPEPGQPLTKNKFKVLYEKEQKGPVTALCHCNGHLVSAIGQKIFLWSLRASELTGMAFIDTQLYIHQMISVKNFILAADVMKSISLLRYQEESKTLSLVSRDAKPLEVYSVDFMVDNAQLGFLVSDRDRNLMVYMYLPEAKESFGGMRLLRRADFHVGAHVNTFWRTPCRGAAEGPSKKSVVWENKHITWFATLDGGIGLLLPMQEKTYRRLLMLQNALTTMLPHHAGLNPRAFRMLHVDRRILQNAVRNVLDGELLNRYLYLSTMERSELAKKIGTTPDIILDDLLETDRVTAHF
# Cbx1 (mouse), sequence (P83917 whole entry): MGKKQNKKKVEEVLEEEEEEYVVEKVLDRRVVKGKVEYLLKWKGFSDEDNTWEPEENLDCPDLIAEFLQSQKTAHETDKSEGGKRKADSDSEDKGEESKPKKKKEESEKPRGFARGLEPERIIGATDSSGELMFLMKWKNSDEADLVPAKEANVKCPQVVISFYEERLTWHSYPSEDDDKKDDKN
substance,measurement,setting,value
2x Flag tag only (control) (peptide),Nucleus peptide,Akr1b3 (mouse),2 peptides
same,Nucleus spectra,Akr1b3 (mouse),2 spectra
same,Nucleus peptide,Cbx1 (mouse),1 peptides
same,Nucleus spectra,Cbx1 (mouse),4 spectra
same,Nucleus peptide,Cpsf1 (mouse),0 peptides
same,Nucleus spectra,Cpsf1 (mouse),0 spectra
same,Nucleus peptide,Cse1l (mouse),0 peptides
same,Nucleus spectra,Cse1l (mouse),0 spectra
same,Nucleus peptide,Ctbp2 (mouse),2 peptides
same,Nucleus spectra,Ctbp2 (mouse),4 spectra
same,Nucleus peptide,Cttn (mouse),1 peptides
same,Nucleus spectra,Cttn (mouse),2 spectra
same,Nucleus peptide,Cul4b (mouse),0 peptides
same,Nucleus spectra,Cul4b (mouse),0 spectra
same,Nucleus peptide,Ddb1 (mouse),0 peptides
same,Nucleus spectra,Ddb1 (mouse),0 spectra
same,Nucleus peptide,Dnaja1 (mouse),3 peptides
same,Nucleus spectra,Dnaja1 (mouse),5 spectra
same,Nucleus peptide,Dnaja3 (mouse),1 peptides
same,Nucleus spectra,Dnaja3 (mouse),2 spectra
same,Nucleus peptide,Dnajb6 (mouse),1 peptides
same,Nucleus spectra,Dnajb6 (mouse),2 spectra
same,Nucleus peptide,Dnmt3b (mouse),0 peptides
same,Nucleus spectra,Dnmt3b (mouse),0 spectra
same,Nucleus peptide,Dync1h1 (mouse),0 peptides
same,Nucleus spectra,Dync1h1 (mouse),0 spectra
same,Nucleus peptide,Emd (mouse),1 peptides
same,Nucleus spectra,Emd (mouse),1 spectra
same,Nucleus peptide,Gart (mouse),2 peptides
same,Nucleus spectra,Gart (mouse),3 spectra
same,Nucleus peptide,Ints3 (mouse),0 peptides
same,Nucleus spectra,Ints3 (mouse),0 spectra
same,Nucleus peptide,Kif11 (mouse),0 peptides
same,Nucleus spectra,Kif11 (mouse),0 spectra
same,Nucleus peptide,Krt18 (mouse),13 peptides
same,Nucleus spectra,Krt18 (mouse),29 spectra
same,Nucleus peptide,Mllt4 (mouse),1 peptides
same,Nucleus spectra,Mllt4 (mouse),2 spectra
same,Nucleus peptide,Nars (mouse),3 peptides
same,Nucleus spectra,Nars (mouse),3 spectra
same,Nucleus peptide,Pcnt (mouse),0 peptides
same,Nucleus spectra,Pcnt (mouse),0 spectra
same,Nucleus peptide,Pfn1 (mouse),4 peptides
same,Nucleus spectra,Pfn1 (mouse),9 spectra
same,Nucleus peptide,Pkm2 (mouse),1 peptides
same,Nucleus spectra,Pkm2 (mouse),1 spectra
same,Nucleus peptide,Plec1 (mouse),15 peptides
same,Nucleus spectra,Plec1 (mouse),20 spectra
same,Nucleus peptide,Prpf4 (mouse),2 peptides
same,Nucleus spectra,Prpf4 (mouse),2 spectra
same,Nucleus peptide,Psmc5 (mouse),0 peptides
same,Nucleus spectra,Psmc5 (mouse),0 spectra
same,Nucleus peptide,Racgap1 (mouse),3 peptides
same,Nucleus spectra,Racgap1 (mouse),3 spectra
same,Nucleus peptide,Rcc1 (mouse),3 peptides
same,Nucleus spectra,Rcc1 (mouse),6 spectra
same,Nucleus peptide,Rpn1 (mouse),0 peptides
same,Nucleus spectra,Rpn1 (mouse),0 spectra
same,Nucleus peptide,Seh1l (mouse),2 peptides
same,Nucleus spectra,Seh1l (mouse),4 spectra
same,Nucleus peptide,Sfrs17b (mouse),2 peptides
same,Nucleus spectra,Sfrs17b (mouse),2 spectra
same,Nucleus peptide,Smc4 (mouse),1 peptides
same,Nucleus spectra,Smc4 (mouse),2 spectra
same,Nucleus peptide,Ssrp1 (mouse),2 peptides
same,Nucleus spectra,Ssrp1 (mouse),4 spectra
same,Nucleus peptide,Tcp1 (mouse),1 peptides
same,Nucleus spectra,Tcp1 (mouse),2 spectra
same,Nucleus peptide,Tmem48 (mouse),1 peptides
same,Nucleus spectra,Tmem48 (mouse),1 spectra
same,Nucleus peptide,Uba2 (mouse),2 peptides
same,Nucleus spectra,Uba2 (mouse),2 spectra
same,Nucleus peptide,Wapal (mouse),0 peptides
same,Nucleus spectra,Wapal (mouse),0 spectra
same,Nucleus peptide,Xpo1 (mouse),0 peptides
same,Nucleus spectra,Xpo1 (mouse),0 spectra
same,Nucleus peptide,Ywhaz (mouse),1 peptides
same,Nucleus spectra,Ywhaz (mouse),6 spectra
same,Nucleus peptide,Zfp281 (mouse),3 peptides
same,Nucleus spectra,Zfp281 (mouse),5 spectra
human AID containing two tandem Flag tags (Flag-human AID) (from UniProt Q9GZX7 1-198) (enzyme),Nucleus peptide,Akr1b3 (mouse),4 peptides
same,Nucleus spectra,Akr1b3 (mouse),11 spectra
same,Nucleus peptide,Cbx1 (mouse),2 peptides
same,Nucleus spectra,Cbx1 (mouse),12 spectra
same,Nucleus peptide,Cpsf1 (mouse),4 peptides
same,Nucleus spectra,Cpsf1 (mouse),8 spectra
same,Nucleus peptide,Cse1l (mouse),3 peptides
same,Nucleus spectra,Cse1l (mouse),4 spectra
same,Nucleus peptide,Ctbp2 (mouse),4 peptides
same,Nucleus spectra,Ctbp2 (mouse),9 spectra
same,Nucleus peptide,Cttn (mouse),4 peptides
same,Nucleus spectra,Cttn (mouse),9 spectra
same,Nucleus peptide,Cul4b (mouse),4 peptides
same,Nucleus spectra,Cul4b (mouse),7 spectra
same,Nucleus peptide,Ddb1 (mouse),3 peptides
same,Nucleus spectra,Ddb1 (mouse),3 spectra
same,Nucleus peptide,Dnaja1 (mouse),13 peptides
same,Nucleus spectra,Dnaja1 (mouse),49 spectra
same,Nucleus peptide,Dnaja3 (mouse),7 peptides
same,Nucleus spectra,Dnaja3 (mouse),28 spectra
same,Nucleus peptide,Dnajb6 (mouse),5 peptides
same,Nucleus spectra,Dnajb6 (mouse),17 spectra
same,Nucleus peptide,Dnmt3b (mouse),4 peptides
same,Nucleus spectra,Dnmt3b (mouse),9 spectra
same,Nucleus peptide,Dync1h1 (mouse),16 peptides
same,Nucleus spectra,Dync1h1 (mouse),21 spectra
same,Nucleus peptide,Emd (mouse),4 peptides
same,Nucleus spectra,Emd (mouse),10 spectra
same,Nucleus peptide,Gart (mouse),5 peptides
same,Nucleus spectra,Gart (mouse),7 spectra
same,Nucleus peptide,Ints3 (mouse),4 peptides
same,Nucleus spectra,Ints3 (mouse),5 spectra
same,Nucleus peptide,Kif11 (mouse),3 peptides
same,Nucleus spectra,Kif11 (mouse),4 spectra
same,Nucleus peptide,Krt18 (mouse),21 peptides
same,Nucleus spectra,Krt18 (mouse),96 spectra
same,Nucleus peptide,Mllt4 (mouse),7 peptides
same,Nucleus spectra,Mllt4 (mouse),11 spectra
same,Nucleus peptide,Nars (mouse),7 peptides
same,Nucleus spectra,Nars (mouse),16 spectra
same,Nucleus peptide,Pcnt (mouse),5 peptides
same,Nucleus spectra,Pcnt (mouse),6 spectra
same,Nucleus peptide,Pfn1 (mouse),5 peptides
same,Nucleus spectra,Pfn1 (mouse),21 spectra
same,Nucleus peptide,Pkm2 (mouse),3 peptides
same,Nucleus spectra,Pkm2 (mouse),3 spectra
same,Nucleus peptide,Plec1 (mouse),48 peptides
same,Nucleus spectra,Plec1 (mouse),94 spectra
same,Nucleus peptide,Prpf4 (mouse),4 peptides
same,Nucleus spectra,Prpf4 (mouse),5 spectra
same,Nucleus peptide,Psmc5 (mouse),5 peptides
same,Nucleus spectra,Psmc5 (mouse),8 spectra
same,Nucleus peptide,Racgap1 (mouse),6 peptides
same,Nucleus spectra,Racgap1 (mouse),7 spectra
same,Nucleus peptide,Rcc1 (mouse),7 peptides
same,Nucleus spectra,Rcc1 (mouse),16 spectra
same,Nucleus peptide,Rpn1 (mouse),3 peptides
same,Nucleus spectra,Rpn1 (mouse),5 spectra
same,Nucleus peptide,Seh1l (mouse),5 peptides
same,Nucleus spectra,Seh1l (mouse),13 spectra
same,Nucleus peptide,Sfrs17b (mouse),3 peptides
same,Nucleus spectra,Sfrs17b (mouse),8 spectra
same,Nucleus peptide,Smc4 (mouse),5 peptides
same,Nucleus spectra,Smc4 (mouse),7 spectra
same,Nucleus peptide,Ssrp1 (mouse),9 peptides
same,Nucleus spectra,Ssrp1 (mouse),18 spectra
same,Nucleus peptide,Tcp1 (mouse),3 peptides
same,Nucleus spectra,Tcp1 (mouse),5 spectra
same,Nucleus peptide,Tmem48 (mouse),3 peptides
same,Nucleus spectra,Tmem48 (mouse),4 spectra
same,Nucleus peptide,Uba2 (mouse),5 peptides
same,Nucleus spectra,Uba2 (mouse),5 spectra
same,Nucleus peptide,Wapal (mouse),18 peptides
same,Nucleus spectra,Wapal (mouse),41 spectra
same,Nucleus peptide,Xpo1 (mouse),4 peptides
same,Nucleus spectra,Xpo1 (mouse),6 spectra
same,Nucleus peptide,Ywhaz (mouse),6 peptides
same,Nucleus spectra,Ywhaz (mouse),17 spectra
same,Nucleus peptide,Zfp281 (mouse),14 peptides
same,Nucleus spectra,Zfp281 (mouse),49 spectra
